Laboratory results published in PMC6199243 (Scientific Reports, 2018).

Molecular target: T1, a-subunit of recombinant Enterococcus hirae V-ATPase (Enterococcus hirae, UniProt P43439 1-664)
T1 construct: a-subunit of Enterococcus hirae V-ATPase (NtpI); In the map it is represented by a T. thermophilus model (PDB 5GAS) and a homology model of its C-terminal half; also called Eh a-subunit; transmembrane a-subunit; source: E. coli, expressed from pTR19-EhV-ATPase, purified as part of the whole r-EhV-ATPase (Ni-NTA, Superdex 200) in 0.05% DDM
T1 sequence (looked up): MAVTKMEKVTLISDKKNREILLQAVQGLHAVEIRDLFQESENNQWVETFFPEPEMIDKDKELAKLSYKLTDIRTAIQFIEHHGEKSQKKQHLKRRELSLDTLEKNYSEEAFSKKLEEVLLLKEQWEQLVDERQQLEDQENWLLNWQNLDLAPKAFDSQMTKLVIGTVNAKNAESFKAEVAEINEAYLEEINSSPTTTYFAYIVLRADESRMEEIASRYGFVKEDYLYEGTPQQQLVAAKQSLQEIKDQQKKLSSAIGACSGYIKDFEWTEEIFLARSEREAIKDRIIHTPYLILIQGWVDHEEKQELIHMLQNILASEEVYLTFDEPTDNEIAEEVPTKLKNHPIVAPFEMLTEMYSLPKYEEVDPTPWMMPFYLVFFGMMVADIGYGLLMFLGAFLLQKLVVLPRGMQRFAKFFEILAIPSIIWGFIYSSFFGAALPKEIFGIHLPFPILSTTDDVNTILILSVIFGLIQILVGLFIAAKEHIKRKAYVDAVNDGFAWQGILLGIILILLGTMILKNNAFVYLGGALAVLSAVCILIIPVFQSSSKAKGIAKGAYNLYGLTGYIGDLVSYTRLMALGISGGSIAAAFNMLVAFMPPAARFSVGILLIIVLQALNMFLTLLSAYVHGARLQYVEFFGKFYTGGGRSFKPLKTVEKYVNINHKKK
Assay: cryo-EM structure; Zernike phase plate single-particle cryo-EM of r-EhV-ATPase in 0.05% DDM, 17.3 Å; earlier atomic models and homology models fitted into the map
Settings: both partners purified

B1: EG complex (peripheral stalk) of recombinant Enterococcus hirae V-ATPase (complex)
chain 1: MPIDKIITQINETAQLERASFEEMKRKEIDQKFEVKKWQIEADFQKEKASKLEEIERSYRQLRNKQKMQVKQEILNAKQEVLQRLFTEATLQLENEPKEEQLALMKQMIQTLPINGTARLIPGEKSADILTPAVIAEWNEELPFELIREDFTEKAQAGLIIDDAGIQYNFLFSHLIKEIQETMSAEIAKELFD
chain 2: MARILTRIKEAEENNQKKEEQVKAELAQYEQLKNNELIDLNKEFQERLTKLMKEKEKNEEEVTEDEQHKLELILEQFRQKVLEIEKTYLEKEEEEIAKKKNLTNEIIERMKQNNGCH
notes: E-subunit of Enterococcus hirae V-ATPase (NtpE); G-subunit of Enterococcus hirae V-ATPase (NtpF); Two EG peripheral stalks stand in the whole enzyme; The models fitted into the map for EG are of T. thermophilus (PDB 3K5B, 3V6I), not of E. hirae; also called peripheral stalks; source: E. coli, expressed from pTR19-EhV-ATPase, purified as part of the whole r-EhV-ATPase (Ni-NTA, Superdex 200) in …
Q: Does B1 bind?
A: Result: binds
